# Measured values as given in US20220064312A1 (SHIONOGI, published 2022).
# Residue numbers refer to the chain shown, from its start. Numbers in names are those of the source. Read-outs that look alike come from different tables or passages of the source.
# T1: N-ter hCCR4-hCCR8 (human)
# T1 construct: chimera on Expi293 cells; remaining hCCR8 ranges derived from the stated swapped ranges and the 355-residue length; also called N-terminal region human CCR4-substituted human CCR8
# T1 chain: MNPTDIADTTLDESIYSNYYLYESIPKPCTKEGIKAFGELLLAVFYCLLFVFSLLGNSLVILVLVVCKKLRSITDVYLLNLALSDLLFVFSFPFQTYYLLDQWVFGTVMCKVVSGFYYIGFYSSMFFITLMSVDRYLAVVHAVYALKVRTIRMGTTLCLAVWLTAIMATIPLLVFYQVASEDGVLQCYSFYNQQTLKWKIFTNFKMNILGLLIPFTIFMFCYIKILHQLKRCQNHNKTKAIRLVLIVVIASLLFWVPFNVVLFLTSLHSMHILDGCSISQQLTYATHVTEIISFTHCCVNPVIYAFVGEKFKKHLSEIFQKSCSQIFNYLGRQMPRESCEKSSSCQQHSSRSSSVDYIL
# T2: mouse CCR8 (mouse, UniProt P56484 1-353)
# T2 construct: also called mCCR8
# T2 sequence: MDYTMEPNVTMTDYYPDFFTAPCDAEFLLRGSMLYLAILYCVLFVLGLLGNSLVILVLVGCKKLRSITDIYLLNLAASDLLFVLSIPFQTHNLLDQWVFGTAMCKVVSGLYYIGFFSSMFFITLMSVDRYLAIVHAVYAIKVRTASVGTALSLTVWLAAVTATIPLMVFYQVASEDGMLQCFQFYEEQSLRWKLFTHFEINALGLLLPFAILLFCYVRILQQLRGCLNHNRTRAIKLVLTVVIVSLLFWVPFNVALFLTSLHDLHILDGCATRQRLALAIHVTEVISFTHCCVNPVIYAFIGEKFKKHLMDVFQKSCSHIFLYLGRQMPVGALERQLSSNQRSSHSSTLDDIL
# T3: human CCR4 (human, UniProt P51679 1-360)
# T3 construct: also called hCCR4
# T3 sequence: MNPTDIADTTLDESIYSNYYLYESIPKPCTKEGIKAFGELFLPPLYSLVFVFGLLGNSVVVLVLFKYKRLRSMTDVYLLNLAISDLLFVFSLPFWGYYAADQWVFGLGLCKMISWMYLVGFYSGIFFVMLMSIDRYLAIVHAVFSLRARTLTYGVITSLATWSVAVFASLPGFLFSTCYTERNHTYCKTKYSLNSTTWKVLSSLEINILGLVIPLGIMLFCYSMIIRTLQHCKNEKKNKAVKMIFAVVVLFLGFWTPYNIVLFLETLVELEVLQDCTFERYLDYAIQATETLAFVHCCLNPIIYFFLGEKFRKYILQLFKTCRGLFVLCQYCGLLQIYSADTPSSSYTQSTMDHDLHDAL
# B1: 1H4 (antibody, V domains shown)
# VH: EVQLVESGGRLVQPKGSLKLSCAASGFTFNTYAMYWIRQAPGKGLEWVARIRSKSNNYATYYADSVKDRFTISRDDSQSMLYLQMNNLKTEDTAMYYCVRARFYYSDYGYAMDYWGQGTSVTVSS
# VL: DIVMTQAAPSVPVTPGESVSISCRSSKSLLHSNGNTYLYWFLQRPGQSPQLLIYRMSNLASGVPDRFSASGSGTAFTLRISRVEAEDVGVYYCMQHLEYPLTFGAGTKLELKR
# notes: mouse hybridoma antibody
# B2: h10A11 (IGKV4-1/IGHV3-15 T94R) (antibody, V domains shown)
# VH: EVQLVESGGALVKPGGSLRLSCAASGFTFSTYALYWVRQAPGKGLEWVGRIRSKSNNYATYYADSVKDRFTISRDDSKNTLYLQMNSLKTEDTAVYYCTRARFYYSDYGYAMDYWGQGTLVTVSS
# VL: DIVMTQSPDSLAVSLGERATINCRSSKSLLHSNGNTYLYWYQQKPGQPPKLLIYRMSNLASGVPDRFSGSGSGTDFTLTISSLQAEDVAVYYCMQHLEYPLTFGQGTKLEIKR
# notes: humanized; detected with anti-human IgG; also called humanized 10A11 antibody (light chain variable region: IGKV4-1/heavy chain variable region: IGHV3-15 T94R)
# B3: h10A11 (IGKV4-1/IGHV3-73) (antibody, V domains shown)
# VH: B2 VH with A10G, K13Q, R19K, T28A, S30N, P41S, L81A
# VL: B2 VL
# B4: h19D7 (IGKV3-20/IGHV3-15 T94R) (antibody, V domains shown)
# VH: EVQLVESGGALVKPGGSLRLSCAASGFTFSTYAMYWVRQAPGKGLEWVGRIRSKSNNYATYYADSVKDRFTISRDDSKNTLYLQMNSLKTEDTAVYYCTRGGYGNYRYAMDYWGQGTTVTVSS
# VL: EIVLTQSPGTLSLSPGERATLSCRSSKSLLHSNGNTYLYWYQQKPGQAPRLLIYRVSNLASGIPDRFSGSGSGTDFTLTISRLEPEDFAVYYCMQHLEYPFTFGQGTKLEIK
# notes: humanized; detected with anti-human IgG
# Legend:
# N-ter hCCR4-hCCR8 = biological target: T1, N-ter hCCR4-hCCR8; assay: flow cytometry, transfected Expi293 cells
# mouse CCR8 = biological target: T2, mouse CCR8; assay: flow cytometry, transfected Expi293 cells
# human CCR4 = biological target: T3, human CCR4; assay: flow cytometry, transfected Expi293 cells
# hCCR8 (Y17A) = hCCR8 (Y17A) (human, UniProt P51685 1-355); assay: flow cytometry, transfected Expi293 cells
# hCCR8 (Y17A), sequence (P51685 whole entry Y17A): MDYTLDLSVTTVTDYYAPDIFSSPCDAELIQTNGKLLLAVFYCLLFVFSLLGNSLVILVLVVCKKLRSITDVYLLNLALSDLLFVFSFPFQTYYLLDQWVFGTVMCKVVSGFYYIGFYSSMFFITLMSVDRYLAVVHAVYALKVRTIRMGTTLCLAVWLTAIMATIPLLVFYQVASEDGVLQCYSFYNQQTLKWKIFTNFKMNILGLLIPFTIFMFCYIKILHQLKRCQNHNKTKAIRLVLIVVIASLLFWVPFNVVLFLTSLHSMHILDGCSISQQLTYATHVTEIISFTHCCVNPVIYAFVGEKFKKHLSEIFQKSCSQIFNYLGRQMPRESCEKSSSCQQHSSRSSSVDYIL
# hCCR8 (K35A) [1] = biological target: T4, hCCR8 (K35A) (human, UniProt P51685 1-355); assay: flow cytometry, transfected Expi293 cells
# human CCR8 [2] = biological target: T5, human CCR8 (human, UniProt P51685 1-355); assay: cell-based or functional assay
# T5 sequence (P51685 whole entry): as the sequence (P51685 whole entry Y17A) above, with A17Y counted along it
# loop1 hCCR4-hCCR8 [3] = biological target: T6, loop1 hCCR4-hCCR8 (human, UniProt P51685 1-355); assay: flow cytometry, transfected Expi293 cells; Δ = significantly reduced vs hCCR8
# T6 construct: chimera on Expi293 cells; hCCR8 ranges derived; also called loop 1-human CCR4-substituted human CCR8
# loop2 hCCR4-hCCR8 [4] = biological target: T7, loop2 hCCR4-hCCR8 (human, UniProt P51685 1-355); assay: as above
# T7 construct: chimera on Expi293 cells; hCCR8 ranges derived; also called loop2-human CCR4-substituted human CCR8
# human CCR8 [5] = biological target: T5, human CCR8; assay: cell-based or functional assay; remark: listed apart in the source
# loop1 hCCR4-hCCR8 [6] = biological target: T6, loop1 hCCR4-hCCR8; assay: flow cytometry, transfected Expi293 cells
# Experimental: (§1) In addition to the chimeras of human CCR4 and the point mutants at the N-terminal region of human CCR8 produced in Example 3, binding evaluation was also performed for point mutants at loop1 and loop2 regions of human CCR8. […] After reacting at room temperature for 3 hours, it was reacted with Alexa488-labeled Anti-human IgG antibody (Thermo Fisher Scientific) and flow cytometry analysis was performed.
# (§2) In comparison to human CCR8, a mutant having binding activity of 70% or less was indicated as Δ and a mutant having binding activity of 20% or less was indicated as x.
# hCCR8 (V180A) = hCCR8 (V180A) (human, UniProt P51685 1-355); assay: flow cytometry, transfected Expi293 cells
# Experimental: as §1, §2
# hCCR8 (L181A) = hCCR8 (L181A) (human, UniProt P51685 1-355); assay: flow cytometry, transfected Expi293 cells
# Experimental: as §1, §2
# hCCR8 (L5A) = biological target: T8, hCCR8 (L5A) (human, UniProt P51685 1-355); assay: flow cytometry, transfected Expi293 cells
# T8 construct: also called hCCR8 (LSA)
# Experimental: as §1, §2
# hCCR8 (T32A) = biological target: T9, hCCR8 (T32A) (human, UniProt P51685 1-355); assay: flow cytometry, transfected Expi293 cells
# T9 construct: also called hCCR8 (132A)
# Experimental: as §1, §2
# hCCR8 (S22A) = hCCR8 (S22A) (human, UniProt P51685 1-355); assay: flow cytometry, transfected Expi293 cells
# Experimental: as §1, §2
# hCCR8 (N188A) = hCCR8 (N188A) (human, UniProt P51685 1-355); assay: flow cytometry, transfected Expi293 cells
# Experimental: as §1, §2
# loop2 hCCR4-hCCR8 [7] = biological target: T7, loop2 hCCR4-hCCR8; assay: flow cytometry, transfected Expi293 cells
# Experimental: as §1, §2
# hCCR8 (K35A) [8] = biological target: T4, hCCR8 (K35A); assay: flow cytometry, transfected Expi293 cells; remark: listed apart in the source
# Experimental: as §1, §2
# hCCR8 (I20A) = biological target: T10, hCCR8 (I20A) (human, UniProt P51685 1-355); assay: flow cytometry, transfected Expi293 cells
# T10 construct: also called hCCR8 (120A)
# Experimental: as §1, §2
# hCCR8 (D97A) = hCCR8 (D97A) (human, UniProt P51685 1-355); assay: flow cytometry, transfected Expi293 cells
# Experimental: as §1, §2
# human CCR8 [9] = biological target: T5, human CCR8; assay: cell-based or functional assay; remark: listed apart in the source
# human CCR8 [10] = biological target: T5, human CCR8; assay: cell-based or functional assay; remark: listed apart in the source
# human CCR8 [11] = biological target: T5, human CCR8; assay: cell-based or functional assay; remark: listed apart in the source
# hCCR8 (T13A) = hCCR8 (T13A) (human, UniProt P51685 1-355); assay: flow cytometry, transfected Expi293 cells
# Experimental: as §1, §2
# hCCR8 (S23A) = hCCR8 (S23A) (human, UniProt P51685 1-355); assay: flow cytometry, transfected Expi293 cells
# Experimental: as §1, §2
# loop3 hCCR4-hCCR8 = biological target: T11, loop3 hCCR4-hCCR8 (human, UniProt P51685 1-355); assay: flow cytometry, transfected Expi293 cells
# T11 construct: chimera on Expi293 cells; hCCR8 ranges derived
# Experimental: as §1, §2
# hCCR8 (T11A) = hCCR8 (T11A) (human, UniProt P51685 1-355); assay: flow cytometry, transfected Expi293 cells
# Experimental: as §1, §2
# hCCR8 (T10A) = hCCR8 (T10A) (human, UniProt P51685 1-355); assay: flow cytometry, transfected Expi293 cells
# Experimental: as §1, §2
# hCCR8 (Y15A) = hCCR8 (Y15A) (human, UniProt P51685 1-355); assay: flow cytometry, transfected Expi293 cells
# Experimental: as §1, §2
# hCCR8 (L29A) = hCCR8 (L29A) (human, UniProt P51685 1-355); assay: flow cytometry, transfected Expi293 cells
# Experimental: as §1, §2
# hCCR8 (K193A) = hCCR8 (K193A) (human, UniProt P51685 1-355); assay: flow cytometry, transfected Expi293 cells
# Experimental: as §1, §2
binder,measurement,setting,value
B1,binding result,N-ter hCCR4-hCCR8,no binding
same,binding result,mouse CCR8,no binding
same,binding result,human CCR4,no binding
same,binding result,hCCR8 (Y17A),no binding
same,binding result,hCCR8 (K35A) [1],no binding
same,"IC50 (nM), Ca2+ influx by 200 nM hCCL1",human CCR8 [2],0.36 nM
same,binding result,loop1 hCCR4-hCCR8 [3],binds
same,binding result,loop2 hCCR4-hCCR8 [4],binds
same,"Neutralizing Activity IC50 (nM), Ca2+ influx by 100 nM hCCL1",human CCR8 [5],0.32 nM
B2,binding activity in comparison to human CCR8,loop1 hCCR4-hCCR8 [6],≤ 70%
same,binding activity in comparison to human CCR8,hCCR8 (V180A),≤ 70%
same,binding activity in comparison to human CCR8,hCCR8 (L181A),≤ 70%
same,binding activity in comparison to human CCR8,hCCR8 (L5A),≤ 70%
same,binding activity in comparison to human CCR8,hCCR8 (T32A),≤ 70%
same,binding activity in comparison to human CCR8,hCCR8 (S22A),≤ 70%
same,binding activity in comparison to human CCR8,hCCR8 (N188A),≤ 70%
same,binding activity in comparison to human CCR8,loop2 hCCR4-hCCR8 [7],≤ 70%
same,binding activity in comparison to human CCR8,hCCR8 (K35A) [8],≤ 70%
same,binding activity in comparison to human CCR8,hCCR8 (I20A),≤ 70%
same,binding activity in comparison to human CCR8,hCCR8 (D97A),≤ 70%
same,IC50 ratio (WT IC50/mutant IC50),human CCR8 [9],1 ratio
same,"IC50 (nM), Ca2+ influx by 200 nM hCCL1",human CCR8 [10],0.15 nM
B3,IC50 ratio (WT IC50/mutant IC50),human CCR8 [11],1 ratio
same,"IC50 (nM), Ca2+ influx by 200 nM hCCL1",human CCR8 [10],0.17 nM
B4,binding activity in comparison to human CCR8,hCCR8 (T13A),≤ 70%
same,binding activity in comparison to human CCR8,loop1 hCCR4-hCCR8 [6],≤ 70%
same,binding activity in comparison to human CCR8,hCCR8 (S23A),≤ 70%
same,binding activity in comparison to human CCR8,loop3 hCCR4-hCCR8,≤ 70%
same,binding activity in comparison to human CCR8,hCCR8 (L181A),≤ 70%
same,binding activity in comparison to human CCR8,hCCR8 (L5A),≤ 70%
same,binding activity in comparison to human CCR8,hCCR8 (T11A),≤ 70%
same,binding activity in comparison to human CCR8,hCCR8 (T10A),≤ 70%
same,binding activity in comparison to human CCR8,hCCR8 (S22A),≤ 70%
same,binding activity in comparison to human CCR8,hCCR8 (N188A),≤ 70%
same,binding activity in comparison to human CCR8,loop2 hCCR4-hCCR8 [7],≤ 70%
same,binding activity in comparison to human CCR8,hCCR8 (Y15A),≤ 70%
same,binding activity in comparison to human CCR8,hCCR8 (K35A) [8],≤ 70%
same,binding activity in comparison to human CCR8,hCCR8 (I20A),≤ 70%
same,binding activity in comparison to human CCR8,hCCR8 (L29A),≤ 70%
same,binding activity in comparison to human CCR8,hCCR8 (K193A),≤ 70%
